Source: patent US20230183337A1 (UNIVERSIT D AIXMARSEILLE, published 2023)
Each block holds one binder with its values, some of them ahead of it.

Tests used:
[1] = molecular target: T1, Nectin-4 (SUM190 cells) (UniProt Q96NY8 32-510); assay: FACS
T1 chain: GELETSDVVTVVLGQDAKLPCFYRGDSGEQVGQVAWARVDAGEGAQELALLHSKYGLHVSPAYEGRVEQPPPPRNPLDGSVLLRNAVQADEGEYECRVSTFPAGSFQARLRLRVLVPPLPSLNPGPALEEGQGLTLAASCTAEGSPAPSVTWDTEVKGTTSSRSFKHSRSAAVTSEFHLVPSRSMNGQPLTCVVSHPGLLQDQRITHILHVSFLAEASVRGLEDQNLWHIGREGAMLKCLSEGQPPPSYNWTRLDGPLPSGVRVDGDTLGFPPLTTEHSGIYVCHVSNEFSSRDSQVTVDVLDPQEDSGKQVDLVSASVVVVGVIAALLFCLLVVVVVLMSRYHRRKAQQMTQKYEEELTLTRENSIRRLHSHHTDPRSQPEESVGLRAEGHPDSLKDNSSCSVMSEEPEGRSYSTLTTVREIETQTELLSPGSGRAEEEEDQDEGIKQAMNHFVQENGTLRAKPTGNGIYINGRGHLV

[2] = molecular target: T2, human Nectin-4 (cell surface nectin-4 on SUM190 tumor cells; nectin-4 in breast cancer tissues) (UniProt Q96NY8 32-510); assay: FACS
T2 chain: T1 chain

[3] = molecular target: T3, human Nectin-4 (cell surface nectin-4 on SUM190 tumor cells; nectin-4 in breast cancer tissues) (human, UniProt Q96NY8 32-510); assay: FACS on SUM190 cells, serial dilutions of mAb
T3 construct: Endogenous nectin-4 of the human SUM190 breast cancer cell line (FACS) and of patient FFPE tumour tissue (IHC); also called PVRL4
T3 sequence: T1 chain

- EC50 [1]: 0.052 µg/mL
B1: N41 (antibody, V domains shown)
VH: QVQLKQSGPGLVQPSQSLSITCTVSGFSLTNYGVHWVRQSPGKGLEWLGVIWSGGSTDYNAAFISRLSISKDTSKSQVFFKMNSLQADDTAIYYCARELIHAMDNWGQGTSVTVSS
VL: DIQMTQSPASLSVSVGETVTITCRASENIYSNLAWYQQKQGNSPQLLVFAATNLADGVPSRFSGSGSGTQYSLKINSLQSEDFGTYYCQHFWGTPTFGGGTKLEIK

- EC50 [2]: 0.018 µg/mL
- binding result [3]: binds
B2: murine monoclonal antibody 5A12.2 (hybridoma CNCM I-5407) (antibody, V domains shown)
VH: QIQLQQSGAELVKPGASVTLSCKTSGFTFNSMYISWLKQKPGQSLEWIAWIYAGTGGTRFNQKFTGKVQLTVDTSSSTAYMQFSSLTTDDSAIYYCAIRSGFVPMDYWGQGTSVTVSS
VL: SIVMTQTPKFLLVSAGDRVTITCKASQSVSNDVAWYQQKPGQSPKLLIYYASNRYTGVPDRFTGSGYGTDFTFTISTVQAEDLAVYFCQQDYSSPWTFGGGTKLEIK
notes: Whole murine monoclonal antibody from a hybridoma with a kappa light chain; also called mAb 5A12.2; 5A12.2 mAb

- EC50 [1]: 0.034 µg/mL
B3: 14A5 (antibody, V domains shown)
VH: EVLLQQSGPELVKPGASVKIPCKASGYTFTDYTMDWVKQSHGKSLEWIGDINPNNDVTMYNEKFKGRATLTVDKSSSTAYMEVRSLTSEDTAVYYCVRGRGFAYWGQGTLVTVSA
VL: DIVLTQSPASLIVSLGQRATISCRASQSVSTSSNSYMHWYQQKPGQPPKLLIRFASNLESGVPARFSGSGSGTYFTLNIHPVEEEDSATYYCQHSWEIPYTFGGGTKLEIK
